The supplement of paper PMC9112550, “Optimization of the antimicrobial peptide Bac7 by deep mutational scanning” (BMC Biology, 2022)

Test system: Escherichia coli TOP10
Test: shrunken log2 fold change of peptide-encoding DNA abundance (4.5 h post-induction vs induction); higher = less antimicrobial activity (less host growth inhibition)
Settings: time post-induction: 4.5 h; library: site-saturation at positions 5, 18, 19, 20
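Note: peptides expressed intracellularly from a pBAD plasmid library in pooled LB shake-flask culture, induced with 0.3% L-arabinose, DNA abundance read by NGS, three biological replicates, DESeq2 with apeglm shrinkage.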

Sequence	shrunken log2 fold change
RRIRGRPPRLPRPRPRPVTLPRP	0.149
RRIRGRPPRLPRPRPRPVWKPRP	0.113
RRIRGRPPRLPRPRPRPVYNPRP	0.0349
RRIRGRPPRLPRPRPRPVYSPRP	-0.36
RRIRGRPPRLPRPRPRPVYVPRP	0.0272
RRIRGRPPRLPRPRPRPWACPRP	0.216
RRIRGRPPRLPRPRPRPWAKPRP	-0.0167
RRIRGRPPRLPRPRPRPWDIPRP	0.212
RRIRGRPPRLPRPRPRPWDVPRP	-0.00788
RRIRGRPPRLPRPRPRPWFEPRP	-0.111
RRIRGRPPRLPRPRPRPWFFPRP	0.169
RRIRGRPPRLPRPRPRPWFMPRP	-0.384
RRIRGRPPRLPRPRPRPWFWPRP	0.6
RRIRGRPPRLPRPRPRPWHQPRP	1.75
RRIRGRPPRLPRPRPRPWIQPRP	0.0532
RRIRGRPPRLPRPRPRPWKEPRP	0.275
RRIRGRPPRLPRPRPRPWKLPRP	0.0361
RRIRGRPPRLPRPRPRPWMMPRP	-0.0114
RRIRGRPPRLPRPRPRPWNNPRP	0.139
RRIRGRPPRLPRPRPRPWPPPRP	0.663
RRIRGRPPRLPRPRPRPWQCPRP	0.0158
RRIRGRPPRLPRPRPRPWRAPRP	0.311
RRIRGRPPRLPRPRPRPWRMPRP	-0.000462
RRIRGRPPRLPRPRPRPWRTPRP	-0.0149
RRIRGRPPRLPRPRPRPWSEPRP	0.127

Sequence	shrunken log2 fold change
RRIRGRPPRLPRPRPRPWTPPRP	0.75
RRIRGRPPRLPRPRPRPWVGPRP	0.12
RRIRGRPPRLPRPRPRPWVPPRP	0.0241
RRIRGRPPRLPRPRPRPWVRPRP	0.151
RRIRGRPPRLPRPRPRPWWMPRP	0.322
RRIRGRPPRLPRPRPRPWWWPRP	0.152
RRIRGRPPRLPRPRPRPWYEPRP	-0.14
RRIRGRPPRLPRPRPRPYASPRP	0.143
RRIRGRPPRLPRPRPRPYCVPRP	-0.237
RRIRGRPPRLPRPRPRPYDEPRP	0.0538
RRIRGRPPRLPRPRPRPYEQPRP	-0.157
RRIRGRPPRLPRPRPRPYFSPRP	-0.00993
RRIRGRPPRLPRPRPRPYFYPRP	-0.03
RRIRGRPPRLPRPRPRPYGGPRP	-0.26
RRIRGRPPRLPRPRPRPYGWPRP	-0.0363
RRIRGRPPRLPRPRPRPYIEPRP	-0.114
RRIRGRPPRLPRPRPRPYKEPRP	-0.375
RRIRGRPPRLPRPRPRPYKTPRP	-0.0831
RRIRGRPPRLPRPRPRPYMWPRP	-0.361
RRIRGRPPRLPRPRPRPYNIPRP	-0.2
RRIRGRPPRLPRPRPRPYPNPRP	-0.529
RRIRGRPPRLPRPRPRPYPPPRP	-0.0824
RRIRGRPPRLPRPRPRPYQKPRP	-0.00887
RRIRGRPPRLPRPRPRPYQWPRP	0.0268
RRIRGRPPRLPRPRPRPYRKPRP	0.176

Sequence	shrunken log2 fold change
RRIRGRPPRLPRPRPRPYVAPRP	0.0436
RRIRGRPPRLPRPRPRPYVFPRP	-0.141
RRIRGRPPRLPRPRPRPYVSPRP	-0.203
RRIRGRPPRLPRPRPRPYWFPRP	0.105
RRIRGRPPRLPRPRPRPYWNPRP	-0.39
RRIRGRPPRLPRPRPRPYWTPRP	-0.0522
RRIRGRPPRLPRPRPRPYWYPRP	-0.211
RRIRHRPPRLPRPRPRPAADPRP	0.274
RRIRHRPPRLPRPRPRPADTPRP	-0.406
RRIRHRPPRLPRPRPRPAEKPRP	-0.0153
RRIRHRPPRLPRPRPRPAFWPRP	0.741
RRIRHRPPRLPRPRPRPAIHPRP	-0.303
RRIRHRPPRLPRPRPRPAKIPRP	-0.0242
RRIRHRPPRLPRPRPRPAKWPRP	-0.0376
RRIRHRPPRLPRPRPRPALDPRP	-0.103
RRIRHRPPRLPRPRPRPAMTPRP	-0.00367
RRIRHRPPRLPRPRPRPANDPRP	-0.0802
RRIRHRPPRLPRPRPRPAPHPRP	0.223
RRIRHRPPRLPRPRPRPAQGPRP	-0.197
RRIRHRPPRLPRPRPRPAQIPRP	0.276
RRIRHRPPRLPRPRPRPARCPRP	0.252
RRIRHRPPRLPRPRPRPARNPRP	0.093
RRIRHRPPRLPRPRPRPASGPRP	0.368
RRIRHRPPRLPRPRPRPASKPRP	-0.0351
RRIRHRPPRLPRPRPRPASLPRP	-0.0081

Sequence	shrunken log2 fold change
RRIRHRPPRLPRPRPRPATQPRP	-0.038
RRIRHRPPRLPRPRPRPAVWPRP	0.261
RRIRHRPPRLPRPRPRPAWIPRP	-0.0987
RRIRHRPPRLPRPRPRPAWNPRP	0.287
RRIRHRPPRLPRPRPRPAYAPRP	-0.182
RRIRHRPPRLPRPRPRPAYCPRP	0.119
RRIRHRPPRLPRPRPRPCEAPRP	-0.136
RRIRHRPPRLPRPRPRPCFLPRP	-0.0717
RRIRHRPPRLPRPRPRPCGYPRP	-0.0081
RRIRHRPPRLPRPRPRPCHNPRP	-0.261
RRIRHRPPRLPRPRPRPCIEPRP	-0.00547
RRIRHRPPRLPRPRPRPCIFPRP	-0.597
RRIRHRPPRLPRPRPRPCIGPRP	-0.58
RRIRHRPPRLPRPRPRPCINPRP	-0.306
RRIRHRPPRLPRPRPRPCITPRP	-0.472
RRIRHRPPRLPRPRPRPCKNPRP	-0.444
RRIRHRPPRLPRPRPRPCLWPRP	-0.0157
RRIRHRPPRLPRPRPRPCNDPRP	-0.283
RRIRHRPPRLPRPRPRPCPLPRP	-0.667
RRIRHRPPRLPRPRPRPCPYPRP	-0.546
RRIRHRPPRLPRPRPRPCQFPRP	-0.0209
RRIRHRPPRLPRPRPRPCQIPRP	-0.0122
RRIRHRPPRLPRPRPRPCQKPRP	-0.0102
RRIRHRPPRLPRPRPRPCSCPRP	-0.0391
RRIRHRPPRLPRPRPRPCSTPRP	-0.337

Sequence	shrunken log2 fold change
RRIRHRPPRLPRPRPRPCVVPRP	0.000418
RRIRHRPPRLPRPRPRPCYKPRP	-0.522
RRIRHRPPRLPRPRPRPCYVPRP	-1.53
RRIRHRPPRLPRPRPRPDARPRP	0.133
RRIRHRPPRLPRPRPRPDATPRP	0.286
RRIRHRPPRLPRPRPRPDCAPRP	0.196
RRIRHRPPRLPRPRPRPDDCPRP	-0.00674
RRIRHRPPRLPRPRPRPDDMPRP	-0.11
RRIRHRPPRLPRPRPRPDDTPRP	-0.00674
RRIRHRPPRLPRPRPRPDFKPRP	-0.127
RRIRHRPPRLPRPRPRPDIVPRP	-0.38
RRIRHRPPRLPRPRPRPDKVPRP	0.1
RRIRHRPPRLPRPRPRPDLCPRP	0.00487
RRIRHRPPRLPRPRPRPDLPPRP	0.107
RRIRHRPPRLPRPRPRPDMHPRP	-0.329
RRIRHRPPRLPRPRPRPDMIPRP	-0.0018
RRIRHRPPRLPRPRPRPDQFPRP	-0.441
RRIRHRPPRLPRPRPRPDTHPRP	-1.19
RRIRHRPPRLPRPRPRPEAFPRP	-0.0165
RRIRHRPPRLPRPRPRPEANPRP	0.00386
RRIRHRPPRLPRPRPRPEARPRP	0.192
RRIRHRPPRLPRPRPRPECIPRP	-0.00992
RRIRHRPPRLPRPRPRPECNPRP	-0.0866
RRIRHRPPRLPRPRPRPEDNPRP	-0.0032
RRIRHRPPRLPRPRPRPEGRPRP	-0.114

Sequence	shrunken log2 fold change
RRIRHRPPRLPRPRPRPEHCPRP	0.0155
RRIRHRPPRLPRPRPRPEHHPRP	-0.0643
RRIRHRPPRLPRPRPRPEKLPRP	0.0208
RRIRHRPPRLPRPRPRPELCPRP	-0.135
RRIRHRPPRLPRPRPRPELGPRP	-0.101
RRIRHRPPRLPRPRPRPELRPRP	0.0303
RRIRHRPPRLPRPRPRPEMDPRP	0.015
RRIRHRPPRLPRPRPRPEMFPRP	0.223
RRIRHRPPRLPRPRPRPENLPRP	-0.00992
RRIRHRPPRLPRPRPRPEQGPRP	0.0631
RRIRHRPPRLPRPRPRPEQSPRP	-0.0805
RRIRHRPPRLPRPRPRPERIPRP	-0.0507
RRIRHRPPRLPRPRPRPESDPRP	-0.227
RRIRHRPPRLPRPRPRPETMPRP	0.054
RRIRHRPPRLPRPRPRPETYPRP	-0.00431
RRIRHRPPRLPRPRPRPEVAPRP	-0.00165
RRIRHRPPRLPRPRPRPEVKPRP	0.104
RRIRHRPPRLPRPRPRPEWLPRP	0.274
RRIRHRPPRLPRPRPRPEYWPRP	-0.0523
RRIRHRPPRLPRPRPRPFCEPRP	-0.394
RRIRHRPPRLPRPRPRPFELPRP	-0.0176
RRIRHRPPRLPRPRPRPFEMPRP	-0.505
RRIRHRPPRLPRPRPRPFIEPRP	-0.276
RRIRHRPPRLPRPRPRPFIQPRP	-0.577
RRIRHRPPRLPRPRPRPFKMPRP	-0.274
